Results as given in patent CN112500487A (HUADAO SHANGHAI BIOMEDICAL CO LTD, dated 2021).

Biological target: T1, Human IL-3Rα/CD123蛋白 (human, UniProt P26951 19-305, limits assumed)
T1 construct: Soluble antigen in the mobile phase of the SPR run
T1 sequence (looked up): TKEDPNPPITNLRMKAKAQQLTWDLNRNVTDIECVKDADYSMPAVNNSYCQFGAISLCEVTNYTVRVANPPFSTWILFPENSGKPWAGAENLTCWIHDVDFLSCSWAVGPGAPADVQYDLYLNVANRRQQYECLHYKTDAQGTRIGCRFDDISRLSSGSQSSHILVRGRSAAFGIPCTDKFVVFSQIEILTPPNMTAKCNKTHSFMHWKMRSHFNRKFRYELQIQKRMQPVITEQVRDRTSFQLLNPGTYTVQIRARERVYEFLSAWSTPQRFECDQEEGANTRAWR
Test: SPR (Biacore), antibody immobilised on chip, antigen in mobile phase

Kd: 0.48 nM
koff: 0.000174 s⁻¹
kon: 362000 M⁻¹ s⁻¹
B1: CD123-89 VHH-mIgG2a Fc抗体 (anti-CD123 VHH CD123-89 with mouse Fc tag) (Fc fusion)
chain: EVQLVESGGDSVQTGGSLRLSCLASGYIGSGYCLAWFRQAPGKERKKVANIVIGVGRPYYADSVKGRFTISQDNAKNTLYLQMNSLKPEDTAMYYCAASKFGSWSCGDYNYWGQGTQVTVSS
notes: Expressed in 293E cells from C-4pCP.Stuffer VHH-mCg2a-FC and purified on MabSelect SuRe; also called 抗CD123 VHH抗体CD123-89; 重组CD123-89抗体; not shown: mouse IgG2a Fc tag from vector C-4pCP.Stuffer VHH-mCg2a-FC
